Results from US6790824B1, “Cytokines having neurotrophic activity” (Biopharm Gesellschaft zur biotechnologischen Entwicklung …, priority 1997, dated 2004).
“Also recorded” adds a separate entry of the source.

B1: BMP-12: rh BMP-12, bone morphogenetic protein (protein, UniProt Q7Z4P5 322-450, looked up)
Growth/differentiation factor …: TALAGTRTAQGSGGGAGRGHGRRGRSRCSRKPLHVDFKELGWDDWIIAPLDYEAYHCEGLCDFPLRSHLEPTNHAIIQTLLNSMAPDAAPASCCVPARLSPISILYIDAANNVVYKQYEDMVVEACGCR
B2: BMP-4: rh BMP-4, bone morphogenetic protein (protein, UniProt P12644 293-408, looked up)
Bone morphogenetic protein 4: SPKHHSQRARKKNKNCRRHSLYVDFSDVGWNDWIVAPPGYQAFYCHGDCPFPLADHLNSTNHAIVQTLVNSVNSSIPKACCVPTELSAISMLYLDEYDKVVLKNYQEMVVEGCGCR
B3: BMP-7: rh BMP-7, bone morphogenetic protein (protein, UniProt P18075 293-431, looked up)
Bone morphogenetic protein 7: STGSKQRSQNRSKTPKNQEALRMANVAENSSSDQRQACKKHELYVSFRDLGWQDWIIAPEGYAAYYCEGECAFPLNSYMNATNHAIVQTLVHFINPETVPKPCCAPTQLNAISVLYFDDSSNVILKKYRNMVVRACGCH
B4: brain-derived neurotrophic factor (protein, UniProt P23560 19-247, looked up)
Neurotrophic factor BDNF …: APMKEANIRGQGGLAYPGVRTHGTLESVNGPKAGSRGLTSLADTFEHVIEELLDEDQKVRPNEENNKDADLYTSRVMLSSQVPLEPPLLFLLEEYKNYLDAANMSMRVRRHSDPARRGELSVCDSISEWVTAADKKTAVDMSGGTVTVLEKVPVSKGQLKQYFYETKCNPMGYTKEGCRGIDKRHWNSQCRTTQSYVRALTMDSKKRIGWRFIRIDTSCVCTLTIKRGR
B5: BMP-6: rh BMP-6, bone morphogenetic protein (protein, UniProt P22004 375-513, looked up)
Bone morphogenetic protein 6: SASSRRRQQSRNRSTQSQDVARVSSASDYNSSELKTACRKHELYVSFQDLGWQDWIIAPKGYAANYCDGECSFPLNAHMNATNHAIVQTLVHLMNPEYVPKPCCAPTKLNAISVLYFDDNSNVILKKYRNMVVRACGCH
B6: GDF-5: bone morphogenetic protein like molecule, member of the TGF-β superfamily (protein, UniProt P43026 382-501, looked up)
Growth/differentiation factor …: APLATRQGKRPSKNLKARCSRKALHVNFKDMGWDDWIIAPLEYEAFHCEGLCEFPLRSHLEPTNHAVIQTLMNSMDPESTPPTCCVPTRLSPISILFIDSANNVVYKQYEDMVVESCGCR
B7: neurotrophin-4 (protein, UniProt P34130 81-210, looked up)
Neurotrophin-4: GVSETAPASRRGELAVCDAVSGWVTDRRTAVDLRGREVEVLGEVPAAGGSPLRQYFFETRCKADNAEEGGPGAGGGGCRGVDRRHWVSECKAKQSYVRALTADAQGRVGWRWIRIDTACVCTLLSRTGRA
B8: CNTF: recombinant rat (rr) CNTF, established neurotrophic factor for CG neurons (protein, UniProt P20294 1-200, looked up)
Ciliary neurotrophic factor: MAFAEQTPLTLHRRDLCSRSIWLARKIRSDLTALMESYVKHQGLNKNINLDSVDGVPVASTDRWSEMTEAERLQENLQAYRTFQGMLTKLLEDQRVHFTPTEGDFHQAIHTLMLQVSAFAYQLEELMVLLEQKIPENEADGMPATVGDGGLFEKKLWGLKVLQELSQWTVRSIHDLRVISSHQMGISALESHYGAKDKQM
B9: BMP-11: rh BMP-11, bone morphogenetic protein (protein, UniProt O95390 299-407, looked up)
Growth/differentiation factor …: NLGLDCDEHSSESRCCRYPLTVDFEAFGWDWIIAPKRYKANYCSGQCEYMFMQKYPHTHLVQQANPRGSAGPCCTPTKMSPINMLYFNDKQQIIYGKIPGMVVDRCGCS
B10: oncostatin M (protein, UniProt P13725 26-221, looked up)
Oncostatin-M: AAIGSCSKEYRVLLGQLQKQTDLMQDTSRLLDPYIRIQGLDVPKLREHCRERPGAFPSEETLRGLGRRGFLQTLNATLGCVLHRLADLEQRLPKAQDLERSGLNIEDLEKLQMARPNILGLRNNIYCMAQLLDNSDTAEPTKAGRGASQPPTPTPASDAFQRKLEGCRFLHGYHRFMHSVGRVFSKWGESPNRSRR

Experiments:
[1] = test system: embryonic chicken dorsal root ganglia (DRG) neurons; assay: Survival of dissociated embryonic chick dorsal root ganglia (DRG) neurons, 48 h, counting of surviving neurons; format: cell-based; details: for survival promoting effect of the single factor: factor added alone, dose-response; for survival of DRG neurons in combination with NGF: NGF 10 ng/ml (saturating); for survival of DRG neurons in combination with NT-3: NT-3 10 ng/ml (saturating); for survival effect as share of the (maximal) NGF effect: single factor; for effect on DRG neuron survival when added together with GDF-5: factor at saturating concentration plus GDF-5 20 ng/ml
Method: Dissociated cultures of embryonic chicken dorsal root ganglia (DRG) were generated as described in details by Krieglstein and Unsicker (Neurochem. Res., 21(7) (1996) 843-850). Briefly, DRGs from white Leghorn chick embryos (day 8) were dissected in Ca^2+-Mg^2+ free Hanks' balanced salt solution. After incubation in 0.08% trypsin for 15 min ganglia were dissociated by trituration. Cells were seeded in polyomithin-laminin coated 96-well microtiter plates (A/2 Costar) at a density of 1,200 cells/well. Growth factors were applied at the time of plating in a final volume of […] Dulbecco's Modified Eagle's Medium supplemented with 0.25% bovine serum albumin, N1 additives and 100 U/ml penicillin. As a positive control, nerve growth factor (NGF) was used at the saturating concentration of 5 ng/ml. After 48 h of incubation at 37° C. in a humidified atmosphere containing 5% CO2, cultures were fixed with 2.5% glutaraldehyde. Neuronal cells were identified by their phase-bright and neurite-bearing morphologies and counted within 30% of the total surface area using phase contrast microscopy. In the first set of experiments we tested the survival promoting effect of several growth factors of the bone morphogenetic protein family.
(§1) Embryonic chick ciliary (CG), dorsal root (DRG), and sympathetic (SG) ganglia at embryonic day(s) (E) 8, 10, and 12, were dissected, freed from nerve roots and connective tissue and collected in CME. Ganglia were incubated in trypsin (ICN), washed and dissociated by trituration using fire-polished Pasteur pipettes. Cultures were set up in 96-well microtiter plates (Costar, A/2), precoated with poly-L-ornithine and laminin at a density of 1,200-1,500 cells/well in DMEM supplemented with N1 additives, 0.25% BSA, and 0.1% PSN (DME/N1) and incubated at 37° C. in a 5% CO2 incubator.
(§2) At appropriate times (CG: 24 h, DRG: 48 h, SG: 72 h) cultures were fixed by addition of 2.5% glutardialdehyde in phosphate buffered saline (PBS). Numbers of surviving neurons were determined by direct counting of 30% of the surface area using phase contrast microscopy.
Dissociated cultures of embryonic chicken dorsal root ganglia (DRGs) were generated as described in details by Krieglstein and Unsicker (Dev. Brain. Rees. 93 (1996) 10-17). Briefly, DRGs were dissected in Ca^2+-Mg^2+ free Hank's balanced salt solution (CMF). After incubation in 0.08% trypsin (BioWhittaker) for 15 min, ganglia were dissociated by gentle trituration using fire-polished Pasteur pipettes. Cells in suspension (neuron/non-neuron ratio 1:2) were seeded in polyomithin-laminin coated 96-well microtiter plates (A/2 Costar) at a density of 1,200 cells/well. Growth factors were applied at the time of plating in a final volume of 50 μl Dulbecco's Modified Eagle's Medium supplemented with 0.25% bovine serum albumin, N1 additives (Bottenstein et al., Exp. Cell Res. 125 (1980) 183-190) and 100 U/ml penicillin. As a positive control, nerve growth factor (NGF) was used at the saturating concentration of 10 ng/ml. After 48 h of incubation at 37° C. in a humidified atmosphere containing 5% CO2, cultures were fixed with 2.5% glutaraldehyde in phosphate buffered saline (PBS). Neuronal cells were identified by their phase-bright and neurite-bearing morphologies and counted within 30% of the total surface area using phase contrast microscopy. All experiments were performed in at least triplicate in two independent experiments. Data are presented as mean±SEM. Statistical comparisons were made with student's double t-test, ANOVA and MicrocalOrigin software. Differences were considered statistically significant at *P<0.05, **P<0.01, **P<0.001.

[2] = test system: chick ciliary ganglionic (CG) neurons; assay: Survival of embryonic chick ciliary ganglionic (CG) neurons, 24 h, counting of surviving neurons; format: cell-based; details: for CG neuron survival with further addition of TGF-β: TGF-β 2.5 ng/ml, CNTF non-saturating, OSM, LIF, IL-6 at 10 ng/ml
Method: as §1, §2
Phosphatidylinositol-specific phospholipase C (PIPLC) is an enzyme that specifically cleaves glycosyl-phosphatidylinositol (GPI) linkages. Embryonic chick ciliary ganglionic neurons (E8) were isolated and seeded as described before. Neurons were incubated for 1 h at 37° C. with 1) 100 mU PIPLC or II) 100 mU PIPLC+2 ng/ml TGFβ or III) without enzyme and then growth factors were added. The number of surviving neurons was determined 24 h later.

Molecule | survival promoting effect of the single factor ([1]; E8 chick DRG, 48 h) | survival of DRG neurons in combination with NGF ([1]; E8, 48 h) | survival of DRG neurons in combination with NT-3 ([1]; E8, 48 h) | survival effect as share of the (maximal) NGF effect ([1]; E8 chick DRG, 48 h) | further results
B1 | significant effect; also recorded: promoted the survival of a very small neuron population | significantly increased survival of DRG neurons beyond levels maintained by the single factors | significantly augmented the promoting effect of NT-3 | – | –
B2 | – | significantly increased survival of DRG neurons beyond levels maintained by the single factors | – | approximately 35% | –
B3 | – | – | significantly augmented the promoting effect of NT-3 | approximately 35% | –
B4 | – | – | – | – | effect on DRG neuron survival when added together with GDF-5 ([1]; E8, 48 h): synergistic or additive effects
B5 | significant effect | – | – | – | –
B6 | promoted the survival of a very small neuron population | significantly increased survival of DRG neurons beyond levels maintained by the single factors | significantly augmented the promoting effect of NT-3 | about 20% | neuronal numbers, GDF-5 and NT-3 both at saturating concentrations ([1]; E8 chick DRG, 48 h): failed to increase neuronal numbers significantly above the levels of each single factor; increase in neuronal cell numbers ([1]; E8 chick DRG, 48 h, saturating concentration of 20 ng/ml, vs untreated): approximately two-fold; neuronal cell numbers, GDF-5 added to NGF ([1]; GDF-5 20 ng/ml plus NGF 5 ng/ml, E8, 48 h): significantly increased neuronal cell numbers above values obtained for each single factor; DRG neuron survival with addition of NT-3 ([1]; various concentrations of GDF-5 plus 2.5 ng/ml NT-3, E8, 48 h): significantly increased DRG neuron survival above the NT-3 level
B7 | – | – | – | – | effect on DRG neuron survival when added together with GDF-5 ([1]; E8, 48 h): synergistic or additive effects
B8 | – | – | – | – | CG neuron survival with further addition of TGF-β [2]: clearly augmented the efficacy of a non-saturating concentration of CNTF
B9 | significant effect | – | – | – | –
B10 | – | – | – | – | CG neuron survival with further addition of TGF-β [2]: did not increase the effects of these cytokines beyond background levels; support of CG neuron survival by the single cytokine ([2]; at 10 ng/ml, without TGF-β): did not support CG neurons
